Patent publication US20060003399A1, “High throughput actin polymerization assay” (Cytokinetics, Inc., priority 2004, published 2006)
“Also recorded” adds a separate entry of the source. Like-named read-outs stand apart in the source and are kept apart here.

Columns and labels:
[1] = molecular target: Arp2/3; test: Activities of WASP/N-WASP proteins (Table 4); format: biochemical
Description: The term “variant” or “analogue” generally refers to proteins that are functional equivalents to a native sequence that have similar amino acid sequences and retain, to some extent, one of the activities of the corresponding native protein. Variants/analogues include fragments that retain one or more activities of the corresponding native protein. Examples of WASP and N-WASP activity include, but are not limited to, capacity to: 1) bind Arp2/3 and actin; 2) activate the actin nucleation activity of Arp2/3 (descriptions of assays to detect nucleation activity are provided below); 3) bind an upstream regulator; 4) be regulated by one or more upstream regulators, thereby rendering the WASP or N-WASP protein able to activate the nucleation activity of Arp2/3; and 5) bind downstream regulators initiating signal transduction cascades. Some of the WASP and N-WASP proteins that are provided are able to recapitulate the full activity of WASP or N-WASP, which means that these proteins have all five of the activities just listed. […]
A third class of NPF proteins that can be utilized in some assays include WASP, N-WASP and SCAR proteins that include the WH1 domain but in which the PolyPro region is (e.g., deleted). A fourth class of NPF proteins that can be utilized in some assays are WASP, N-WASP and SCAR deletion mutants in which the PolyPro region is maintained but an N-terminal region (e.g., WH1 domain) is at least partially removed. Some proteins in this class are ones that include the B, CRIB/GBD (WASP and N-WASP), PolyPro and VCA domains, but in which some or all of the WH1 has been removed. One specific example is 98N-WASP, which includes amino acids 98-501 of SEQ ID NO:4. Another specific example is the 105WASP protein, which includes amino acids 105-501 of SEQ ID NO:2 (see FIG. 4B).
As indicated in this table, specific examples of fusion proteins that can be utilized include those that include a segment that encodes full-length WASP or N-WASP, including: Myc-WASP-TAP (SEQ ID NO:14); and Myc-N-WASP-TAP (SEQ ID NO: 16). Examples of fusion proteins that include a WASP or N-WASP deletion mutant domain include: GST-105WASP (SEQ ID NO:18); Myc-105WASP-TAP (SEQ ID NO:20); GST-tev-98N-WASP (SEQ ID NO:22); and Myc-98N-WASP-TAP (SEQ ID NO:24). The TAP tag in these particular fusion proteins has the general structure CBP-tev-ProtA (SEQ ID NO:36). Fusion proteins such as those listed in Table 4 can in some instances be utilized directly, or after one or both of the C- and N-terminal tags are removed. For example, the fusion proteins listed in Table 4 as having a TAP tag can be used once the TAP tag has been cleaved off and/or after the C-terminal tag has been removed.

[2] = molecular target: T1, actin (Gallus gallus, UniProt P68139); test: Formin nucleated actin/pyrene-actin polymerization assay; format: biochemical, chicken
T1 construct: from tissue
Procedure: G-Actin: Typically chicken actin was used. G-actin can be purchased from Cytoskeleton, Inc. It can also be purified according to Pardee and Spudich (1982) Methods of Cell Biol. 24:271-89, and subsequently gel filtered as discussed by MacLean-Fletcher and Pollard (1980) Biochem Biophys. Res. Commun. 96:18-27.
Acrylodan-Actin and Pyrene-Actin: Typically chicken actin was utilized. Pyrene labeled actin was prepared according to methods described in Kouyama and Mihashi (1981) Eur. J. Biochem. 114:33-38 or as described by Cooper et al. (1983) J. Muscle Res. Cell Motility 4:253-62. Alternatively, it can be purchased from Cytoskeleton, Inc. Acrylodan-labeled actin was prepared by modification of the pyrene-labeling protocol described in Cooper et al. (1983) J. Muscle Res. Cell Motility 4:253-62.
G-actin and pyrene-actin were prepared as described in Example 7.
Activity of purified formins from the constructs described above in Example 12 was assessed in an actin/pyrene-actin polymerization assay. Polymerization was carried out in G-buffer and was initiated by addition of 10× polymerization mix.
Gel filtered actin and pyrene-actin were diluted in G-buffer to the indicated final concentrations. Either purified C. albicans formin domains or formin domain-enriched fractions were added together with polymerization mix to start actin polymerization. Formin nucleated actin polymerization was monitored on a Gemini plate reader (excitation at 365 nm and emission at 407 nm). Protein components in the actin polymerization assay are provided below.

[3] = Storage stability of purified formin proteins at -80 C; format: physicochemical; conditions: storage at −80° C.
Procedure: The formins were purified on either Ni-NTA column (His6 tagged proteins) or Gluthatione-Sepharose (GST tagged proteins). Resins were equilibrated with lysis buffer. Clear crude extracts were loaded onto column, columns were washed with lysis buffer followed by washing buffer (50 mM Tris pH 8.0, 50 mM KCl, 1 mM DTT, 1 mM MgCl, 3% glycerol), and proteins were eluted with either 300 mM imidazole (His6-tagged proteins) or 10 mM glutathione (GS-tagged proteins). Eluted proteins were analyzed by SDS PAGE (4-20%) (Invitrogen, San Diego Calif.), fractions were pooled and protein concentrations were measured by Coomassie Plus (Bradford)(Bio-Rad, Hercules, Calif.). Purified proteins were “drop-frozen” in liquid nitrogen and stored at −80° C.

| Molecule | Activate Arp2/3? [1] | Regulated By Which Upstream Regulators? [1] | time stable at −80° C. [3] | further results |
| --- | --- | --- | --- | --- |
| 105WASP: amino acids 105-501 of SEQ ID NO:2; WASP lacking the WH1 domain (protein, listed as Homo sapiens, (1)..(502) FL-WASP) LVYSTPTPFFHTFAGDDCQAGLNFADEDEAQAFRALVQEKIQKRNQRQSGDRRQLPPPPTPANEERRGGLPPLPLHPGGDQGGPPVGPLSLGLATVDIQNPDITSSRYRGLPAPGPSPADKKRSGKKKISKADIGAPSGFKHVSHVGWDPQNGFDVNNLDPDLRSLFSRAGISEAQLTDAETSKLIYDFIEDQGGLEAVRQEMRRQEPLPPPPPPSRGGNQLPRPPIVGGNKGRSGPLPPVPLGIAPPPPTPRGPPPPGRGGPPPPPPPATGRSGPLPPPPPGAGGPPMPPPPPPPPPPPSSGNGPAPPPLPPALVPAGGLAPGGGRGALLDQIRQGIQLNKTPGAPESSALQPPPQSSEGLVGALMHVMQKRSRAIHSSDEGEDQAGDEDEDDEWD | activate actin nucleation by Arp2/3 and Yes | regulated by Cdc42, PIP2, Nck1, and Rc1; also recorded: Cdc42, PIP2, Nck and Rac1 | – | – |
| WASP VCA Domain: VCA domain of WASP (SEQ ID NO:6) (protein, listed as Homo sapiens, (1)..(74) WASP VCA Domain) GGRGALLDQIRQGIQLNKTPGAPESSALQPPPQSSEGLVGALMHVMQKRSRAIHSSDEGEDQAGDEDEDDEWDD | Yes | None | – | – |
| His6 tagged C. albicans FH1-FH2 domain: C. albicans FOR1 M972 to K1598 (FH1 and FH2 domains), C-terminally tagged with His6 (protein, left off: small tags and cut ends) MDPKFLQELSLKVGKAEPIQDANNKNQFGGPLSSSPEDVSQKHKTSGDSSDKDKVLSSPISSNDIKSPETGNSTTSSAAPPPPPPPPPPPPPPLPPILGGNNSSAAPPPPPPPPPPPAFLNGSGSVIPPAPPLPPPSSGRSSRSVPSTVTKSSGSAFDKIPRPKKKLKQLHWEKIDHSQVGNSFWNDPNTHTLVDDLMSKGIFDEIELIFAAKEAKKLATKKKEDLDKVTFLARDISQQFSINLHAFNSFSDEEFVLKVLRCDKDVLTNPAVLDFFGKEDIVEITNTLARNFEPYSTDYKTEEITKPEKDPNELQRPDRIYLELMYNLQHYWKSRTRALNVVVNYDKDVYEYVKKLRLIDEAVDSIKNSKHLKGVFEIILAVGNYMNDSAKQAHGFKLSSLQRLSFMKDEKNSMTFLHYVEKVIRTQYPEFLEFINELSCCNEITKFSIENINNDCKEYARAIKNVQSSIDIGNLSDVSKFHPSDRVLKAVLPALPRAKRKAELLLDQANYTMKEFDDLMKYFGEDPTDQFVKNSFISKFTDFMKDFKRVQAENIKREEELRVYEQRKKLLEKPKSSNNGDSNASDQDGESNEGDGGVMDSLLQRLKAAAPTKGESASARKKALMRK | – | – | several | formin concentration used to observe saturation [2]: 300 to 500 nM; actin nucleation activity of the formin (in words) ([2]; actin […], pyrene actin 0.5 μM): active, i.e., nucleates actin polymerization |
| 98 N-WASP: amino acids 98-501 of SEQ ID NO:4 (protein, listed as Homo sapiens, (1)..(505) FL-N-WASP) FVYNSPRGYFHTFAGDTCQVALNFANEEEAKKFRKAVTDLLGRRQRKSEKRRDPPNGPNLPMATVDIKNPEITTNRFYGPQVNNISHTKEKKKGKAKKKRLTKADIGTPSNFQHIGHVGWDPNTGFDLNNLDPELKNLFDMCGISEAQLKDRETSKVIYDFIEKTGGVEAVKNELRRQAPPPPPPSRGGPPPPPPPPHNSGPPPPPARGRGAPPPPPSRAPTAAPPPPPPSRPSVAVPPPPPNRMYPPPPPALPSSAPSGPPPPPPSVLGVGPVAPPPPPPPPPPPGPPPPPGLPSDGDHQVPTTAGNKAALLDQIREGAQLKKVEQNSRPVSCSGRDALLDQIRQGIQLKSVADGQESTPPTPAPTSGIVGALMEVMQKRSKAIHSSDEDEDEDDEEDFEDDD | Yes | Cdc42, PIP2, Nck and Rac1 | – | Activate Arp2/3? ([1]; listed as 98N-WASP): activate actin nucleation by Arp2/3; Regulated By Which Upstream Regulators? ([1]; listed as 98N-WASP): regulated by Cdc42, PIP2, Nck1, and Rc1 |
| GST tagged C. albicans FH2 domain: C. albicans FOR1 A1127 to K1598 (FH2 domain only), N-terminally tagged with GST-TEV (protein, left off: a dimerising Fc or GST, C. albicans FOR1 A1127 to K1598 (FH2 domain only), N-terminally tagged with GST-TEV) AFDKIPRPKKKLKQLHWEKIDHSQVGNSFWNDPNTHTLVDDLMSKGIFDEIELIFAAKEAKKLATKKKEDLDKVTFLARDISQQFSINLHAFNSFSDEEFVLKVLRCDKDVLTNPAVLDFFGKEDIVEITNTLARNFEPYSTDYKTEEITKPEKDPNELQRPDRIYLELMYNLQHYWKSRTRALNVVVNYDKDVYEYVKKLRLIDEAVDSIKNSKHLKGVFEIILAVGNYMNDSAKQAHGFKLSSLQRLSFMKDEKNSMTFLHYVEKVIRTQYPEFLEFINELSCCNEITKFSIENINNDCKEYARAIKNVQSSIDIGNLSDVSKFHPSDRVLKAVLPALPRAKRKAELLLDQANYTMKEFDDLMKYFGEDPTDQFVKNSFISKFTDFMKDFKRVQAENIKREEELRVYEQRKKLLEKPKSSNNGDSNASDQDGESNEGDGGVMDSLLQRLKAAAPTKGESASARKKALMRK | – | – | several | – |
